Assay results taken from article PMC7984842, “Genetic disruption of WASHC4 drives endo-lysosomal dysfunction and cognitive-movement impairments in mice and humans” (eLife, 2021).

B1: Strumpellin (WASHC5), human (natural protein, human (endogenous in HEK293T), UniProt Q12768 1-1159, looked up)
chain: MLDFLAENNLCGQAILRIVSCGNAIIAELLRLSEFIPAVFRLKDRADQQKYGDIIFDFSYFKGPELWESKLDAKPELQDLDEEFRENNIEIVTRFYLAFQSVHKYIVDLNRYLDDLNEGVYIQQTLETVLLNEDGKQLLCEALYLYGVMLLVIDQKIEGEVRERMLVSYYRYSAARSSADSNMDDICKLLRSTGYSSQPGAKRPSNYPESYFQRVPINESFISMVIGRLRSDDIYNQVSAYPLPEHRSTALANQAAMLYVILYFEPSILHTHQAKMREIVDKYFPDNWVISIYMGITVNLVDAWEPYKAAKTALNNTLDLSNVREQASRYATVSERVHAQVQQFLKEGYLREEMVLDNIPKLLNCLRDCNVAIRWLMLHTADSACDPNNKRLRQIKDQILTDSRYNPRILFQLLLDTAQFEFILKEMFKQMLSEKQTKWEHYKKEGSERMTELADVFSGVKPLTRVEKNENLQAWFREISKQILSLNYDDSTAAGRKTVQLIQALEEVQEFHQLESNLQVCQFLADTRKFLHQMIRTINIKEEVLITMQIVGDLSFAWQLIDSFTSIMQESIRVNPSMVTKLRATFLKLASALDLPLLRINQANSPDLLSVSQYYSGELVSYVRKVLQIIPESMFTSLLKIIKLQTHDIIEVPTRLDKDKLRDYAQLGPRYEVAKLTHAISIFTEGILMMKTTLVGIIKVDPKQLLEDGIRKELVKRVAFALHRGLIFNPRAKPSELMPKLKELGATMDGFHRSFEYIQDYVNIYGLKIWQEEVSRIINYNVEQECNNFLRTKIQDWQSMYQSTHIPIPKFTPVDESVTFIGRLCREILRITDPKMTCHIDQLNTWYDMKTHQEVTSSRLFSEIQTTLGTFGLNGLDRLLCFMIVKELQNFLSMFQKIILRDRTVQDTLKTLMNAVSPLKSIVANSNKIYFSAIAKTQKIWTAYLEAIMKVGQMQILRQQIANELNYSCRFDSKHLAAALENLNKALLADIEAHYQDPSLPYPKEDNTLLYEITAYLEAAGIHNPLNKIYITTKRLPYFPIVNFLFLIAQLPKLQYNKNLGMVCRKPTDPVDWPPLVLGLLTLLKQFHSRYTEQFLALIGQFICSTVEQCTSQKIPEIPADVVGALLFLEDYVRYTKLPRRVAEAHVPNFIFDEFRTVL
notes: Strumpellin (WASHC5), endogenous in HEK293T cells, detected with an anti-Strumpellin antibody; source: endogenous, HEK293T lysate
B2: WASH1 (WASHC1), human (natural protein, human (endogenous in HEK293T), UniProt A8K0Z3 1-465, looked up)
chain: MTPVRMQHSLAGQTYAVPFIQPDLRREEAVQQMADALQYLQKVSGDIFSRISQQVEQSRSQVQAIGEKVSLAQAKIEKIKGSKKAIKVFSSAKYPAPGRLQEYGSIFTGAQDPGLQRRPRHRIQSKHRPLDERALQEKLKDFPVCVSTKPEPEDDAEEGLGGLPSNISSVSSLLLFNTTENLYKKYVFLDPLAGAVTKTHVMLGAETEEKLFDAPLSISKREQLEQQVPENYFYVPDLGQVPEIHVPSYLPDLPGIANDLMYSADLGPGIAPSAPGTIPELPTFHTEVAEPLKVDLQDGVLTPPPPPPPPPPAPEVLASAPPLPPSTAAPVGQGARQDDSSSSASPSVQGAPREVVDPSGGWATLLESIRQAGGIGKAKLRSMKERKLEKQQQKEQEQVRATSQGGHLMSDLFNKLVMRRKGISGKGPGAGEGPGGAFVRVSDSIPPLPPPQQPQAEEDEDDWES
notes: WASH1 (WASHC1), endogenous in HEK293T cells, detected with an anti-WASH1 C-terminal antibody; Human cells carry several near-identical WASH paralogues; source: endogenous, HEK293T lysate

Target: T1, SWIP-MUT-HA (human WASHC4 P1019R) (human, UniProt Q2M389 1-1173, P1019R)
T1 construct: SWIP (WASHC4), human, with the patients' variant c.3056C>G, p.Pro1019Arg, made by site-directed mutagenesis of pmCAG-SWIP-WT-HA; The mutation occurs in human patients (Ropers et al., 2011); also called SWIP^P1019R; MUT SWIP; source: HEK293T, transfected (pmCAG-SWIP-MUT-HA), in lysate
T1 sequence (looked up): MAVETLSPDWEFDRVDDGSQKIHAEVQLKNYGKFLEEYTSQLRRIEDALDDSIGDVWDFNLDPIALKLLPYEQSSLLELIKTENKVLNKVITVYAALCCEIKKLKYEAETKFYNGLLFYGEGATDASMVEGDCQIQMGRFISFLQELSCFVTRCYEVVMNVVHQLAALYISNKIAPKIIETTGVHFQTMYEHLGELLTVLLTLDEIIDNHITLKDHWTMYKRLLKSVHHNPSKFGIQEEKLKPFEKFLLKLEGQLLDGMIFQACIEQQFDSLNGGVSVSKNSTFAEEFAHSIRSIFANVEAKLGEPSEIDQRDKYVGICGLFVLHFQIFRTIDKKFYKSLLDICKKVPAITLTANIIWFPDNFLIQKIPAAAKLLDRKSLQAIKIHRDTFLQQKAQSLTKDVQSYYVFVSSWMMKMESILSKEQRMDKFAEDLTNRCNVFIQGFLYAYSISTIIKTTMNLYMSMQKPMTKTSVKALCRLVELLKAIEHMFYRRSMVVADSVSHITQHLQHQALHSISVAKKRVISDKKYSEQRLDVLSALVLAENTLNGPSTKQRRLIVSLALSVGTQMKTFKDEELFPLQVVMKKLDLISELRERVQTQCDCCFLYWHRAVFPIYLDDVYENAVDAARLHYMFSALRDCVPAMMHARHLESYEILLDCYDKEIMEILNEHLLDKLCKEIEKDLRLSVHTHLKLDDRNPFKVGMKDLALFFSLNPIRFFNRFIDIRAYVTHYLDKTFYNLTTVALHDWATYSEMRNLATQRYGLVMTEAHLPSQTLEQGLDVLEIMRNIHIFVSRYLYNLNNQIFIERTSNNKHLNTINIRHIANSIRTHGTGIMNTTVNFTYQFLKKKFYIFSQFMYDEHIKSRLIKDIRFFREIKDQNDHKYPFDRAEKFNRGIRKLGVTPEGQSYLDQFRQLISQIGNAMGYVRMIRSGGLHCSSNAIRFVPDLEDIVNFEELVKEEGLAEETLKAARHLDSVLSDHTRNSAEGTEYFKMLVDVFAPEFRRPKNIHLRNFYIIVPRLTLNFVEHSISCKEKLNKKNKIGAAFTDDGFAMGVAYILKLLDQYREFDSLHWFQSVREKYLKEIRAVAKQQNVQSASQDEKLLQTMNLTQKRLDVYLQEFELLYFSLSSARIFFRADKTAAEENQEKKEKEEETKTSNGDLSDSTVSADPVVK
Test: co-IP; HEK293T transfected with SWIP-WT-HA or SWIP-MUT-HA for three days; lysis buffer 25 mM HEPES, 150 mM NaCl, 1 mM EDTA, 1% Nonidet P-40, pH 7.4; anti-HA agarose beads 2 hr at 4°C; blots for WASH1, Strumpellin and HA; band intensities normalised to WT
Details: partners not purified

Binder	amount co-immunoprecipitated, % of WT SWIP
B1	54.8 % of WT
B2	41.4 % of WT
